Laboratory results published in patent publication US20160039936A1, “FIBROBLAST GROWTH FACTOR RECEPTOR INHIBITION FOR THE TREATMENT OF DISEASE” (UNIVERSITY OF MIAMI, priority 2011, published 2016).

How the values were obtained:
FGFR = conditions: Mohammadi et al. 1998; Grand et al. 2004; cited from earlier work
[1] = In vivo biological activity of FGF23 (serum phosphate); parameters: species or system rat; conditions: Sprague-Dawley rats, single i.v. 40 μg/kg, over 4 hours
Excerpt: We used recombinant mouse FGF23 (6His-tagged Tyr25-Val251 (Arg179Gln)), FGF2 (Ala11-Ser154), and FGF4 (Ala30-Leu202) proteins (R&D Systems). We chose the mutant form of FGF23 because it is resistant to furin protease-mediated degradation, which prolongs the protein's half-life.
We used recombinant mouse FGF23 (6His-tagged Tyr25-Val251 [Arg179Gln]; 26.1 kDa), and FGF2 (Ala11-Ser154; 16.2 kDa) (R&D Systems) as before (Faul et al., 2011).

FGFR4 = target: T1, FGFR4 (Rattus norvegicus, UniProt Q498D6); assay: Binding of PLCγ to FGFR4 in NRVM (immunoprecipitation); format: cell-based; conditions: 30 minutes, vs PBS or FGF2
T1 construct: endogenous in cells; host or cells: isolated neonatal rat ventricular myocytes (NRVM)
T1 sequence (Q498D6 17-800): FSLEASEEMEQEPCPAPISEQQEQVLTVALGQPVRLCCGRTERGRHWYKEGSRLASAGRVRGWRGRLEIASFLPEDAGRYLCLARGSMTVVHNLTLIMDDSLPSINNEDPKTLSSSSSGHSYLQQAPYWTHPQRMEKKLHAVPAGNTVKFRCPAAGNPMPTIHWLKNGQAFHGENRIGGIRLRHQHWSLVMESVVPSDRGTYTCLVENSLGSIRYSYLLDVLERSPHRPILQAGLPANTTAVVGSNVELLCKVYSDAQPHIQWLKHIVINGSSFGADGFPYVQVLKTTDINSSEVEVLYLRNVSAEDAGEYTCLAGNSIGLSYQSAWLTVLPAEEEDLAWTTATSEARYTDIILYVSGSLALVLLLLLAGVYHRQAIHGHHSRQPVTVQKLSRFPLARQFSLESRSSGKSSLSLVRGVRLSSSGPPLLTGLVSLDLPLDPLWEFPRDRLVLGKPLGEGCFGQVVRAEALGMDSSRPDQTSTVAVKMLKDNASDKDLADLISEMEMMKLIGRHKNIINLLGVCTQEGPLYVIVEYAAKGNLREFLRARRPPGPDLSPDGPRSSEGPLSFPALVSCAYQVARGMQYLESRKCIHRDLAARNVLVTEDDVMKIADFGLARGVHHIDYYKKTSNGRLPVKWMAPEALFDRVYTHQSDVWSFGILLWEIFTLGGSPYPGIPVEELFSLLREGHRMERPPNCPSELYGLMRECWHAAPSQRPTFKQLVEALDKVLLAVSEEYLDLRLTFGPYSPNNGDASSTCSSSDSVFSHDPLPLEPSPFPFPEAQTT
Method: HEK293 cells in 10 cm-dishes were treated with growth factors for 30 minutes, cells were scraped using 1 ml IP buffer (50 mM Tris-HCl pH7.5, 150 mM NaCl, 5 mM MgCl2, 2 mM EGTA, 1% Triton X-100, 5% Glycerol, protease and phosphatase inhibitors), and protein lysates were prepared as described above. V5-tagged proteins were immunoprecipitated using 25 μl of anti-V5 agarose beads (Sigma-Aldrich). After 5 washes in IP buffer, proteins were eluted in 100 μl of sample buffer and analyzed by SDS-PAGE and immunoblotting. For endogenous immunoprecipitation studies from NRVM, cells in 10cm-dishes were treated with growth factors for 30 minutes. Some cells were pre-treated with FGFR4 blocking antibody at 10 μg/ml for 1 hour (human monoclonal, U3-11; U3Pharma). […] We added 50 μl of a 1:1 mix of Protein A on sepharose beads and Protein G on agarose beads that were previously equilibrated in RIPA buffer, followed by incubation at 4° C. under rotation for 2 hours, protein elution in sample buffer, and SDS-PAGE and Western blot analyses.

isolated NRVM = assay: Ras/MAPK signaling (phospho-FRS2α, phospho-ERK1/2) Western blot in NRVM; format: cell-based, rat; conditions: 30 minutes, FGF alone
Method: HEK293 cells, NRVM or NMVM were treated with growth factors for 30 minutes to analyze activation of signal transduction mediators, or for 48 hours to analyze expression levels of hypertrophic marker proteins. Cells were scraped from 6-well plates using 500 μl CHAPS extraction buffer (20 mM Tris-HCl pH7.5, 500 mM NaCl, 0.5% CHAPS, protease inhibitor cocktail (Roche), protein phosphatase inhibitors [Sigma-Aldrich]) and incubated on ice for 30 minutes. The cell lysate was centrifuged at 14,000 rpm and 4° C. for 30 minutes, and the supernatant boiled in sample buffer and analyzed by SDS-PAGE and immunoblotting. For protein extraction from mouse hearts, tissue was isolated, minced and homogenized in RIPA extraction buffer (50 mM Tris-HCl pH 7.5, 200 mM NaCl, 1% Triton X-100, 0.25% DOC, 1 mM EDTA, 1 mM EGTA, protease and phosphatase inhibitors) at 1:10 (w:v), and protein lysates were prepared as described above. […]

In the case of `CCN(CC)CCCCNc1ncc2cc(-c3cc(OC)cc(OC)c3)c(NC(=O)NC(C)(C)C)nc2n1` [PD173074], the “phosphorylation of FGFR3 and FGFR4” value (FGFR) is listed as “inhibits”.

B1: FGF23: recombinant mouse FGF23, 6His-tagged Tyr25-Val251 (Arg179Gln) (R&D Systems) (protein)
chain: YPDTSPLLGSNWGSLTHLYTATARTSYHLQIHRDGHVDGTPHQTIYSALMITSEDAGSVVITGAMTRRFLCMDLHGNIFGSLHFSPENCKFRQWTLENGYDVYLSQKHHYLVSLGRAKRIFQPGTNPPPFSQFLARRNEVPLLHFYTVRPRRHTQSAEDPPERDPLNVLKPRPRATPVPVSCSRELPSAEEGGPAASDPLGVLRRGRGDARGGAGGADRCRPFPRFV
modifications: left off: small tags and cut ends
For B1, the serum phosphate levels [1] was “significantly decreased” and the “levels of co-purified FGFR4 in anti-PLCγ eluates” value (FGFR4) was “elevated”.

B2: FGF2: recombinant mouse FGF2 (Ala11-Ser154) (R&D Systems) (protein)
chain: ALPEDGGAAFPPGHFKDPKRLYCKNGGFFLRIHPDGRVDGVREKSDPHVKLQLQAEERGVVSIKGVCANRYLAMKEDGRLLASKCVTEECFFFERLESNNYNTYRSRKYSSWYVALKRTGQYKLGSKTGPGQKAILFLPMSAKS
For B2, the “levels of phosphorylated FRS2α and ERK1/2” value (isolated NRVM) was “increased”.
